Experimental data published in paper PMC8104893 (Science Advances, 2021).

Target: T1, GST-XBAT31 (Arabidopsis, UniProt Q94B55 1-456)
T1 sequence (looked up): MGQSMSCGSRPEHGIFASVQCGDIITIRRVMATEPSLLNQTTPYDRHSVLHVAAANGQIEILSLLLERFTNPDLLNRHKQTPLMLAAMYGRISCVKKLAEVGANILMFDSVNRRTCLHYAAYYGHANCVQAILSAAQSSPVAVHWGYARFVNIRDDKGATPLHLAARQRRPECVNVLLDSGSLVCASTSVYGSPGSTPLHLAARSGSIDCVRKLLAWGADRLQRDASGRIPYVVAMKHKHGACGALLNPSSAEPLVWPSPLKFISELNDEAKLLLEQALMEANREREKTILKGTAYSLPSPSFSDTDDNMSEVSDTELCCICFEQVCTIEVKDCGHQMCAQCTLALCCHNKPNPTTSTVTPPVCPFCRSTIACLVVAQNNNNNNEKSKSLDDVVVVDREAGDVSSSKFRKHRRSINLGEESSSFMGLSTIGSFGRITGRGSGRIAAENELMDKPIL
Test: pull-down

- binding result: binds
B1: MBP-BBX18 (natural protein, Arabidopsis, UniProt Q9SJU5 1-172, looked up)
chain: MRILCDACESAAAIVFCAADEAALCCSCDEKVHKCNKLASRHLRVGLADPSNAPSCDICENAPAFFYCEIDGSSLCLQCDMVVHVGGKRTHRRFLLLRQRIEFPGDKPNHADQLGLRCQKASSGRGQESNGNGDHDHNMIDLNSNPQRVHEPGSHNQEEGIDVNNANNHEHE
